The results in this text go back to patent US20120014957A1 (AbbVie / Abbott, published 2012).

Assay [1] concerns the target T1, NRP1 on cells (UniProt O14786 22-923, limits assumed).
T1 construct: whole, on cells
Description: flow cytometry on cells, antibody at 2 ug/mL. The procedure:
(§1) Stable cell lines overexpressing a cell-surface antigen of interest or human tumor cell lines were harvested from tissue culture flasks and resuspended in phosphate buffered saline (PBS) containing 5% fetal bovine serum (PBS/FBS). Prior to staining, human tumor cells were incubated on ice with (100 μl) human IgG at 5 μg/ml in PBS/FCS. 1−5×10⁵ cells were incubated with antibody or DVD-Ig (2 μg/mL) in PBS/FBS for 30-60 minutes on ice. Cells were washed twice and 100 μl of F(ab′)2 goat anti human IgG, Fcγ-phycoerythrin (1:200 dilution in PBS) (Jackson ImmunoResearch, West Grove, Pa., Cat. #109-116-170) was added. After a 30 minute incubation on ice, cells were washed twice and resuspended in PBS/FBS. Fluorescence was measured using a Becton Dickinson FACSCalibur (Becton Dickinson, San Jose, Calif.).
(§2) The geometric mean is the n root of the multiplication product of n fluorescent signals (a1×a2×a3 . . . an). With log-transformed data the geometric mean is used to normalize the weighting of the data distribution.
On the technique in general: Flow cytometry measures light scatter and fluorescence of single cells or particles in a stream.

The target in another assay is Recombinant Human β-NGF (human, UniProt P01138 122-241). Nature of the assay: cell-based or functional assay.
Assay [2] has as its target T1, NRP1 on cells. Description: flow cytometry on cells, DVD-Ig at 2 ug/mL. As to the method: as §1, §2
Another assay concerns the target T2, CD-20 on cells (UniProt P11836 1-297, limits assumed).
T2 construct: whole, on cells
T2 sequence (looked up): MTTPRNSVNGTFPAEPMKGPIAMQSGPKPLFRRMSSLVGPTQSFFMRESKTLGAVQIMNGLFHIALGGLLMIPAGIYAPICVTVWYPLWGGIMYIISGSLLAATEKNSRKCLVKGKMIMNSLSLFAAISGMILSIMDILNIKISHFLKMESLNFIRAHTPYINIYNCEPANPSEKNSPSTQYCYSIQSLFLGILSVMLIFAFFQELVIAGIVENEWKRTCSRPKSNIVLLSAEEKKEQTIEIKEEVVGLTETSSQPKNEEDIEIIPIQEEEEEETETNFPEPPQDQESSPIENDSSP
Nature of the assay: flow cytometry on cells, DVD-Ig at 2 ug/mL. The procedure: as §1, §2

B1: AB016 (antibody, V domains shown)
VH: EVQLVESGGGLVQPGGSLRLSCAASGFSFSSEPISWVRQAPGKGLEWVSSITGKNGYTYYADSVKGRFTISADTSKNTAYLQMNSLRAEDTAVYYCARWGKKVYGMDVWGQGTLVTVSS
VL: DIQMTQSPSSLSASVGDRVTITCRASQSISSYLAWYQQKPGKAPKLLIYGASSRASGVPSRFSGSGSGTDFTLTISSLQPEDFATYYCQQYMSVPITFGQGTKVEIKR
notes: Parent antibody; also called NRP1
For B1, in the assay with NRP1 on cells [1], the “FACS Geometric Mean” value is 338.

B2: DVD1352 (bispecific antibody, human IgG1, kappa)
heavy: not shown
light: DIQMTQSPSSLSASVGDRVTITCRASQSISSYLAWYQQKPGKAPKLLIYGASSRASGVPSRFSGSGSGTDFTLTISSLQPEDFATYYCQQYMSVPITFGQGTKVEIKRTVAAPDIQMTQSPSSLSASVGDRVTITCRASEDIYNALAWYQQKPGKAPKLLIYNTDTLHTGVPSRFSGSGSGTDYTLTISSLQPEDFATYFCQHYFHYPRTFGQGTKVEIKRTVAAPSVFIFPPSDEQLKSGTASVVCLLNNFYPREAKVQWKVDNALQSGNSQESVTEQDSKDSTYSLSSTLTLSKADYEKHKVYACEVTHQGLSSPVTKSFNRGEC
notes: DVD-Ig; also called DVD1352H; DVD1352L
Regarding B2, the “C-Terminal VD NGF Inhibition Assay EC50” value with Recombinant Human β-NGF turned out to be 0.226 nM. In addition, in the assay with NRP1 on cells [2], the “FACS Geometric Mean N-terminal” value turned out to be 42.

B3: DVD1336 (bispecific antibody, human IgG1, kappa)
heavy: not shown
light: QIVLSQSPAILSPSPGEKVTMTCRASSSVSYIHWFQQKPGSSPKPWIYATSNLASGVPVRFSGSGSGTSYSLTISRVEAEDAATYYCQQWTSNPPTFGGGTKLEIKRTVAAPDIQMTQSPSSLSASVGDRVTITCRASEDIYNALAWYQQKPGKAPKLLIYNTDTLHTGVPSRFSGSGSGTDYTLTISSLQPEDFATYFCQHYFHYPRTFGQGTKVEIKRTVAAPSVFIFPPSDEQLKSGTASVVCLLNNFYPREAKVQWKVDNALQSGNSQESVTEQDSKDSTYSLSSTLTLSKADYEKHKVYACEVTHQGLSSPVTKSFNRGEC
notes: DVD-Ig; also called DVD1336H; DVD1336L
On to B3, for which the “FACS Geometric Mean N-terminal” value with CD-20 on cells was 754.
